# Test results taken from publication doi:10.1101/273615 (bioRxiv, 2018).
# Legend:
# Assay in all cases: ITC
# [1] = biological target: Mus musculus core RBPJ, residues 53-474 (Mus musculus, UniProt P31266 53-474)
# RBPJ (53-474) F261A = RBPJ (53-474) F261A (Mus musculus, UniProt P31266 53-474, F261A)
# RBPJ (53-474) L388A = RBPJ (53-474) L388A (Mus musculus, UniProt P31266 53-474, L388A)
# RBPJ (53-474) A284V = RBPJ (53-474) A284V (Mus musculus, UniProt P31266 53-474, A284V)
# Sequence of RBPJ (53-474) A284V (P31266 53-474 A284V): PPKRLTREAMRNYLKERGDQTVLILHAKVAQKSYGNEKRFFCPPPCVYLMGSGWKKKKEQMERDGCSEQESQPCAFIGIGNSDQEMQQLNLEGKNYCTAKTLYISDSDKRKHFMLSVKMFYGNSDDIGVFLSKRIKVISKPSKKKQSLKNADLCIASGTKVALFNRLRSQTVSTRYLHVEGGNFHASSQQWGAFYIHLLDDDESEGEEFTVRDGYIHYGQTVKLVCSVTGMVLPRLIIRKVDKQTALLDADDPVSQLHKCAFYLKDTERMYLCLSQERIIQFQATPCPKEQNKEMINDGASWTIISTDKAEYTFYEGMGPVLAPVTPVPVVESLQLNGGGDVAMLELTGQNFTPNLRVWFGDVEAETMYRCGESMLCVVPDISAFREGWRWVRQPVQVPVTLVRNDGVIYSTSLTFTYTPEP
# Sequence of Mus musculus core RBPJ, residues 53-474 (P31266 53-474): as the sequence (P31266 53-474 A284V) above, with V232A counted along it
# Sequence of RBPJ (53-474) L388A (P31266 53-474 L388A): as the sequence (P31266 53-474 A284V) above, with V232A, L336A counted along it
# Sequence of RBPJ (53-474) F261A (P31266 53-474 F261A): as the sequence (P31266 53-474 A284V) above, with F209A, V232A counted along it
binder,measurement,setting,value
"SMT3-SHARP, residues 2776-2833 (RBPJ-interacting region) (domain or fragment, UniProt Q96T58 2802-2859, looked up) SGAGLRVNTSEGVVLLSYSGQKTEGPQRISAKISQIPPASAMDIEFQQSVSKSQVKPD",Kd,[1],~5 nM
same,stoichiometry N,[1],1
same,fold reduction in binding against native RBPJ,RBPJ (53-474) F261A,~45 fold
same,fold reduction in binding against native RBPJ,RBPJ (53-474) L388A,~70 fold
same,fold reduction in binding against native RBPJ,RBPJ (53-474) A284V,~50 fold
"SMT3-SHARP (2776-2833) K2807A (domain or fragment, UniProt Q96T58 2802-2859, looked up) SGAGLRVNTSEGVVLLSYSGQKTEGPQRISAAISQIPPASAMDIEFQQSVSKSQVKPD",fold reduction in binding against native SHARP,[1],~6 fold
"SMT3-SHARP (2776-2833) Y2793A (domain or fragment, UniProt Q96T58 2802-2859, looked up) SGAGLRVNTSEGVVLLSASGQKTEGPQRISAKISQIPPASAMDIEFQQSVSKSQVKPD",fold reduction in binding against native SHARP,[1],> 20 fold
"SMT3-SHARP (2776-2833) L2791A (domain or fragment, UniProt Q96T58 2802-2859, looked up) SGAGLRVNTSEGVVLASYSGQKTEGPQRISAKISQIPPASAMDIEFQQSVSKSQVKPD",fold decrease in binding against native SHARP,[1],> 350 fold
"SMT3-SHARP (2776-2833) V2789A (domain or fragment, UniProt Q96T58 2802-2859, looked up) SGAGLRVNTSEGVALLSYSGQKTEGPQRISAKISQIPPASAMDIEFQQSVSKSQVKPD",fold reduction in binding against native SHARP,[1],> 10 fold
"SMT3-SHARP (2776-2833) I2811A (domain or fragment, UniProt Q96T58 2802-2859, looked up) SGAGLRVNTSEGVVLLSYSGQKTEGPQRISAKISQAPPASAMDIEFQQSVSKSQVKPD",fold reduction in binding against native SHARP,[1],> 60 fold
